In this data set the target is T1, AdpA (His-tagged) (Streptomyces coelicolor M145) (UniProt Q9L062).
T1 sequence: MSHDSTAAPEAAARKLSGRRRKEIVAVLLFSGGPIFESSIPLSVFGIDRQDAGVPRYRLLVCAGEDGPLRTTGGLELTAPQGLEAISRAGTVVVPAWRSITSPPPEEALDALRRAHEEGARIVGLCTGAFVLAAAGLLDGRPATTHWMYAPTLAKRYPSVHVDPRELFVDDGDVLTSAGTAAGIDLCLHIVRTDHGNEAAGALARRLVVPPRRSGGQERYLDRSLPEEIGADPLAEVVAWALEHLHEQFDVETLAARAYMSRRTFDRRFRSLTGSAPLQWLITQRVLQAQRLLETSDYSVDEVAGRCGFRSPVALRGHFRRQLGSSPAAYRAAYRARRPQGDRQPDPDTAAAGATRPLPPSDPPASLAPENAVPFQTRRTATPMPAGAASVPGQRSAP
Nature of the data set: EMSA. The note with it: EMSA: 20 mM Tris-HCl pH 8.0, 2 mM EDTA, 20 mM KCl, 0.5 mM DTT, 4% Ficoll-400, 2 µg poly(dI-dC), room temperature, 25 min; 20 nM probe. In general terms: Mobility shift assays separate free from complexed probe on a gel.

Consider “TCATGGGCGCGCGTCCTGCGCACGCCGCCGGTTCGGTACTCCGAAGGTGCAGCGTCCGCGGAGCCGCGGAGATTCCCGCCCACCGTCGCATTTCGGCCACGCGAGGGCCCGGCGAGTGATGAGGATCTCGCCGCACACGGGCACCAAGGCTGGTA (double strand) [trxA5 (sco1084) promoter probe]”, for which the binding result is reported as “binds”.

Consider “GCGGCAGATCAGGACCCTCCAGGACTTCGGGTTCGACCTGGAGGAGACCCGCCCCTTCGTGGAGTGCCTGCGCGCCGGGCACCCGGAGGGCGACTCCTGTCCGGCGTCCCTCGTGGTCTACCGGCGCAAGCTGGCCGAGCTGGACACGCTGATCGAGCAGCTCACGTCGGTGCGCGCGCAGGTCGCCGCACAGCTGACGCGGGCCGAGGCGGCGGCTCCGGGGGGTCCGGAGCCCAAGTGCGAACTGGGAGGACACGGATGAAGACCAGCGGGGTGCCCGAGGTGACGGACGCGGACTT (double strand) [trxA2 (sco5438) promoter probe]”, for which the binding result is “binds”.
